Data: paper PMC11812572, “NuMA is a mitotic adaptor protein that activates dynein and connects it to microtubule minus ends” (The Journal of Cell Biology, 2025)

Biological target: the molecule itself
Assay: mass photometry; TwoMP mass photometer; 5-20 nM protein in the respective TIRF microscopy assay buffer without methylcellulose; monomer to dimer

B1: mScarlet-tagged human NuMA C-terminal fragment aa 1560-2115, mScarlet-NuMA^(C-term L) (domain or fragment, UniProt Q14980-1 1560-2115, looked up)
chain: TSDQASKVQQQKLKAVQAQGGESQQEAQRLQAQLNELQAQLSQKEQAAEHYKLQMEKAKTHYDAKKQQNQELQEQLRSLEQLQKENKELRAEAERLGHELQQAGLKTKEAEQTCRHLTAQVRSLEAQVAHADQQLRDLGKFQVATDALKSREPQAKPQLDLSIDSLDLSCEEGTPLSITSKLPRTQPDGTSVPGEPASPISQRLPPKVESLESLYFTPIPARSQAPLESSLDSLGDVFLDSGRKTRSARRRTTQIINITMAKKLDVEEPDSANSSFYSTRSAPASQASLRATSSTQSLARLGSPDYGNSALLSLPGYRPTTRSSARRSQAGVSSGAPPGRNSFYMGTCQDEPEQLDDWNRIAELQQRNRVCPPHLKTCYPLESRPSLSLGTITDEEMKTGDPQETLRRASMQPIQIAEGTGITTRQQRKRVSLEPHQGPGTPESKKATSCFPRPMTPRDRHEGRKQSTTEAQKKAAPASTKQADRRQSMAFSILNTPKKLGNSLLRRGASKKALSKASPNTRSGTRRSPRIATTTASAATAAAIGATPRAKGKAKHLE
notes: NuMA, human, isoform 1 (NM_006185), aa 1560-2115: part of the predicted coiled-coil and the entire C-terminal tail; Mixed population of monomers and dimers by mass photometry; source: Sf21 insect cells (baculovirus), purified (StrepTrap, TEV cleavage, SEC); not shown: Strep-tag II, N-terminal, cleaved; mScarlet, N-terminal, kept
  stoichiometry N: 2

B2: AF546- or AF647-labelled SNAP-tagged human NuMA N-terminal fragment (first 705 aa), NuMA^N-term (domain or fragment, UniProt Q14980-1 1-705, looked up)
chain: MTLHATRGAALLSWVNSLHVADPVEAVLQLQDCSIFIKIIDRIHGTEEGQQILKQPVSERLDFVCSFLQKNRKHPSSPECLVSAQKVLEGSELELAKMTMLLLYHSTMSSKSPRDWEQFEYKIQAELAVILKFVLDHEDGLNLNEDLENFLQKAPVPSTCSSTFPEELSPPSHQAKREIRFLELQKVASSSSGNNFLSGSPASPMGDILQTPQFQMRRLKKQLADERSNRDELELELAENRKLLTEKDAQIAMMQQRIDRLALLNEKQAASPLEPKELEELRDKNESLTMRLHETLKQCQDLKTEKSQMDRKINQLSEENGDLSFKLREFASHLQQLQDALNELTEEHSKATQEWLEKQAQLEKELSAALQDKKCLEEKNEILQGKLSQLEEHLSQLQDNPPQEKGEVLGDVLQLETLKQEAATLAANNTQLQARVEMLETERGQQEAKLLAERGHFEEEKQQLSSLITDLQSSISNLSQAKEELEQASQAHGARLTAQVASLTSELTTLNATIQQQDQELAGLKQQAKEKQAQLAQTLQQQEQASQGLRHQVEQLSSSLKQKEQQLKEVAEKQEATRQDHAQQLATAAEEREASLRERDAALKQLEALEKEKAAKLEILQQQLQVANEARDSAQTSVTQAQREKAELSRKVEELQACVETARQEQHEAQAQVAELELQLRSEQQKATEKERVAQEKDQLQEQLQ
modifications: SNAP-tag labelled with SNAP-Surface Alexa Fluor 546 or SNAP-Surface Alexa Fluor 647
notes: nuclear mitotic apparatus protein (NuMA), human, isoform 1 (NM_006185), first 705 aa; two stop codons inserted after aa 705; codon-optimised for S. frugiperda; A PreScission site lies between the SNAP-tag and NuMA; Dimeric by mass photometry; the construct described is SNAP-tagged; also called AF546-NuMA^N-term; AF647-NuMA^N-term; source: Sf21 insect cells (baculovirus), purified (StrepTrap, TEV …)
  stoichiometry N: 2
